Like-named read-outs stand apart in the source and are kept apart here.
Columns and labels:
[1] = target: T1, human ILT3 (as used in the affinity measurements) (human, UniProt Q8NHJ6 22-259, limits assumed); assay: comparison of the affinity of Hz45G10 for human ILT3 with that of the CD3 scFv for CD3
T1 construct: also called immunoglobulin-like transcript 3

[2] = target: T1, human ILT3 (as used in the affinity …); assay: column 'ILT3 Affinity (nM)'; method and format not stated
[3] = target: T2, ILT3 on target cells (MOLM13, OCI-AML-2, NALM-1, THP-1, MM1S, H929, U226B1 and other lines) (human, UniProt Q8NHJ6 22-448); assay: cell-based or functional assay
[4] = target: T2, ILT3 on target cells (MOLM13, …); assay: cell-based or functional assay; remark: listed apart in the source
[5] = target: T2, ILT3 on target cells (MOLM13, …); assay: cell-based or functional assay; remark: listed apart in the source
[6] = target: T2, ILT3 on target cells (MOLM13, …); assay: cell-based or functional assay; remark: listed apart in the source
[7] = target: T2, ILT3 on target cells (MOLM13, …); assay: cell-based or functional assay; remark: listed apart in the source
[8] = target: T2, ILT3 on target cells (MOLM13, …); assay: cell-based or functional assay; remark: listed apart in the source
[9] = target: T3, CD3 (as used in the affinity measurements) (human, UniProt P07766 23-126); assay: SPR
T3 construct: the description gives human CD3 as UniProtKB P07766; also called human CD3
T3 sequence (P07766 23-126): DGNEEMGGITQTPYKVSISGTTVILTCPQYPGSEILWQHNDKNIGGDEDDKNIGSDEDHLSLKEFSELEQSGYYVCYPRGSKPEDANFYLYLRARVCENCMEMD

B1: Hz45G10 anti-ILT3 antibody (antibody, V domains shown)
VH: EVQLVESGGGLVQPGGSLRLSCAASGFTFSDYGMHWVRQAPGKGLEWVAYIFSGSSTIYYADTVKGRFTISRDNAKNSLYLQMNSLRAEDTAVYYCARADGRGAMDYWGQGTLVTVSS
VL: DIQMTQSPSSLSASVGDRVTITCRASQDISKFLNWYQQKPGKAPKLLIYYTSRLHSGVPSRFSGSGSGTDFTFTISSLQPEDIATYFCQQGNTLPWTFGGGTKLEIK
- fold higher affinity than the CD3 scFv (for CD3) [1]: 38 fold
- Kd [2]: 0.13 nM

B2: 16C5 anti-ILT3 antibody (antibody, V domains shown)
VH: EVQLQQSGPELVKPGASVKISCKASGYTFTDYNMDWVKQSHGKSLEWIGYIYPSNGGTGYNQKFKSKATLTVDKSSNTAYMELHSLTSEDSAVYYCARVPYYDYLYYYAMDYWGQGTSVTVSS
VL: QIVLSQSPAILSASPGEKVTMACRASSSVSFMHWYQQKPGSSPQPWIYATSNLASGVPARFSGSGSGTSYSLTISRVEAEDAATYYCQQWSTNPYMYTFGGGTKLEIK
- Kd [2]: 0.7 nM

B3: 12A12 anti-ILT3 antibody (antibody, V domains shown)
VH: EVQLQQSGPELVKPGASVKISCKASGYTFTDYNMDWVKQSHGKSLEWIGYIYPNNGGTGYNQKFNSKATLTVDKSSSTAYMELHSLTSEDSAVYYCASSPYYDYVGSYAMDYWGQGTSVTVSS
VL: QIVLTQSPAIMSASLGERVTMTCTASSSVSSSYLHWYQQKPGSSPKLWIYSTSNLASGVPARFSGSGSGTSYSLTISSMEAEDAATYYCHQYHRSPRTFGGGTKLEIK
- Kd [2]: 8.5 nM

B4: 53F10 anti-ILT3 antibody (antibody, V domains shown)
VH: EVQVVESGGGLVKPGGSLKLSCAASGFTFSDYGMHWVRQAPEKGLEWVAYISTGIITVYYADTVKGRFTMSRDNAKNTLFLQMTSLRSEDTAIYYCARADGRGAMDYWGQGTSVIVSS
VL: DIQMTQTTSSLSASLGDRVTISCRASQDISNFLNWYQQKPDGTVTLLIYYTSRLHSGVPSRFSGSGSGTDYSLTISNLEQEDFATYFCQQGNTLPWTFGGGTKLEIK
- Kd [2]: 0.25 nM

B5: 48A6 anti-ILT3 antibody (antibody, V domains shown)
VH: EVQLVESGGDLMKPGGSLKLSCAASGFTFSSYGMSWVRQTPDKRLEWVATISSGGTYTFYPDSVKGRFTISRDNAKNTLYLQMSSLKSEDTAMYYCARRGWLLHYYAMDYWGQGTSVTVSS
VL: NIVLTQSPASLAVSLGQRATISCRPSESVDSFGNSFMHWFQQKPGQPPKLLIYLSSKLESGVPARFSGSGSRTDFTLTIDPVEADDAATYYCQQHNEDPFTFGSGTKLEIK
- Kd [2]: 0.08 nM

B6: ABX1446, ILT3xCD3 bispecific antibody, format F0 (bispecific antibody, human IgG1, kappa, L234A L235A)
chain: EVQLLESGGGLVQPGGSLKLSCAASGFTFNTYAMNWVRQAPGKCLEWVARIRSKYNNYATYYADSVKDRFTISRDDSKNTAYLQMNNLKTEDTAVYYCVRHGNFGNSYVSWFAYWGQGTLVTVSSGGGGSGGGGSGGGGSELVVTQEPSLTVSPGGTVTLTCRSSTGAVTTSNYANWVQQKPGQAPRGLIGGTNKRAPGTPARFSGSLLGGKAALTLSGVQPEDEAEYYCALWYSNLWVFGCGTKLTVLGGGGSDKTHTCPPCPAPEAAGGPSVFLFPPKPKDTLMISRTPEVTCVVVDVSHEDPEVKFNWYVDGVEVHNAKTKPREEQYNSTYRVVSVLTVLHQDWLNGKEYKCKVSNKALPAPIEKTISKAKGQPREPQVYTLPPSREEMTKNQVSLSCAVKGFYPSDIAVEWESNGQPENNYKTTPPVLDSDGSFFLVSKLTVDKSRWQQGNVFSCSVMHEALHNHYTQKSLSLSPGK
heavy: EVQLVESGGGLVQPGGSLRLSCAASGFTFSDYGMHWVRQAPGKGLEWVAYIFSGSSTIYYADTVKGRFTISRDNAKNSLYLQMNSLRAEDTAVYYCARADGRGAMDYWGQGTLVTVSSASTKGPSVFPLAPSSKSTSGGTAALGCLVKDYFPEPVTVSWNSGALTSGVHTFPAVLQSSGLYSLSSVVTVPSSSLGTQTYICNVNHKPSNTKVDKKVEPKSCDKTHTCPPCPAPEAAGGPSVFLFPPKPKDTLMISRTPEVTCVVVDVSHEDPEVKFNWYVDGVEVHNAKTKPREEQYNSTYRVVSVLTVLHQDWLNGKEYKCKVSNKALPAPIEKTISKAKGQPREPQVYTLPPSREEMTKNQVSLWCLVKGFYPSDIAVEWESNGQPENNYKTTPPVLDSDGSFFLYSKLTVDKSRWQQGNVFSCSVMHEALHNHYTQKSLSLSPGK
light: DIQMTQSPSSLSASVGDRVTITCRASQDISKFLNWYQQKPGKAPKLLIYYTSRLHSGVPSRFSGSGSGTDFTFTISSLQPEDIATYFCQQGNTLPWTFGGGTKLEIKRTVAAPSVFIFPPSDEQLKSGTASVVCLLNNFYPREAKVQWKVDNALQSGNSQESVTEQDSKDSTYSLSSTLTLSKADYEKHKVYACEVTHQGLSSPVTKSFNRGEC
- PBMC Cytotoxicity, EC50 (pM), MOLM13 cells, naive T cells from PBMCs [3]: 46.8 pM
- TDCC, EC50 (pM), MOLM13 cells, expanded T cells [3]: 10.9 pM
- TDCC, EC50 (pM), MOLM13 cells, expanded T cells [4]: 0.9 pM
- TDCC vs. NKM-1 Cells, EC50 (pM), naive T cells from PBMCs [5]: 20.4 pM
- TDCC vs. OCI-AML-2 Cells, EC50 (pM), naive T cells from PBMCs [5]: 2.5 pM
- TDCC, EC50 (pM), MOLM13 cells [6]: 11 pM
- TDCC, EC50 (pM), H929 cells [7]: 18.6 pM
- TDCC, EC50 (pM), MM1S cells [7]: 18.6 pM
- TDCC, EC50 (pM), U226B1 cells [7]: 6.5 pM
- TDCC vs. NALM-1 Cells, EC50 (pM), expanded T cells [8]: 5.7 pM
- TDCC vs. OCI-AML-2 Cells, EC50 (pM), expanded T cells [8]: 13.5 pM

B7: ABX1520, ILT3xCD3 bispecific antibody, format F13 (bispecific antibody, human IgG1, kappa, L234A L235A)
chain: EVQLLESGGGLVQPGGSLKLSCAASGFTFNTYAMNWVRQAPGKCLEWVARIRSKYNNYATYYADSVKDRFTISRDDSKNTAYLQMNNLKTEDTAVYYCVRHGNFGNSYVSWFAYWGQGTLVTVSSGGGGSGGGGSGGGGSELVVTQEPSLTVSPGGTVTLTCRSSTGAVTTSNYANWVQQKPGQAPRGLIGGTNKRAPGTPARFSGSLLGGKAALTLSGVQPEDEAEYYCALWYSNLWVFGCGTKLTVLGGGGSDKTHTCPPCPAPEAAGGPSVFLFPPKPKDTLMISRTPEVTCVVVDVSHEDPEVKFNWYVDGVEVHNAKTKPREEQYNSTYRVVSVLTVLHQDWLNGKEYKCKVSNKALPAPIEKTISKAKGQPREPQVYTLPPSREEMTKNQVSLSCAVKGFYPSDIAVEWESNGQPENNYKTTPPVLDSDGSFFLVSKLTVDKSRWQQGNVFSCSVMHEALHNHYTQKSLSLSPGK
heavy: EVQLVESGGGLVQPGGSLRLSCAASGFTFSDYGMHWVRQAPGKGLEWVAYIFSGSSTIYYADTVKGRFTISRDNAKNSLYLQMNSLRAEDTAVYYCARADGRGAMDYWGQGTLVTVSSASTKGPSVFPLAPSSKSTSGGTAALGCLVKDYFPEPVTVSWNSGALTSGVHTFPAVLQSSGLYSLSSVVTVPSSSLGTQTYICNVNHKPSNTKVDKKVEPKSCGGGGSEVQLVESGGGLVQPGGSLRLSCAASGFTFSDYGMHWVRQAPGKGLEWVAYIFSGSSTIYYADTVKGRFTISRDNAKNSLYLQMNSLRAEDTAVYYCARADGRGAMDYWGQGTLVTVSSASTKGPSVFPLAPSSKSTSGGTAALGCLVKDYFPEPVTVSWNSGALTSGVHTFPAVLQSSGLYSLSSVVTVPSSSLGTQTYICNVNHKPSNTKVDKKVEPKSCDKTHTCPPCPAPEAAGGPSVFLFPPKPKDTLMISRTPEVTCVVVDVSHEDPEVKFNWYVDGVEVHNAKTKPREEQYNSTYRVVSVLTVLHQDWLNGKEYKCKVSNKALPAPIEKTISKAKGQPREPQVYTLPPSREEMTKNQVSLWCLVKGFYPSDIAVEWESNGQPENNYKTTPPVLDSDGSFFLYSKLTVDKSRWQQGNVFSCSVMHEALHNHYTQKSLSLSPGK
light: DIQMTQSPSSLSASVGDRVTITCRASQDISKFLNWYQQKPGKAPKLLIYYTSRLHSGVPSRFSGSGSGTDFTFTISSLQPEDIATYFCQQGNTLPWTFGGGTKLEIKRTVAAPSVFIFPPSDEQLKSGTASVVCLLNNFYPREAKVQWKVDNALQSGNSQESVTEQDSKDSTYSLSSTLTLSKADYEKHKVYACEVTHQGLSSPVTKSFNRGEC
- PBMC Cytotoxicity, EC50 (pM), MOLM13 cells, naive T cells from PBMCs [3]: 53.7 pM
- TDCC, EC50 (pM), MOLM13 cells, expanded T cells [3]: 1.4 pM
- TDCC vs. NKM-1 Cells, EC50 (pM), naive T cells from PBMCs [5]: 2.6 pM
- TDCC vs. OCI-AML-2 Cells, EC50 (pM), naive T cells from PBMCs [5]: 2 pM
- TDCC vs. NALM-1 Cells, EC50 (pM), expanded T cells [8]: 3.6 pM
- TDCC vs. OCI-AML-2 Cells, EC50 (pM), expanded T cells [8]: 23.3 pM

B8: 3A3 anti-ILT3 antibody (antibody, V domains shown)
VH: QVQLKESGPGLVAPSQSLSITCTVSGFSLTSYGVHWVRQPPGKGLEWLGVIWPGGTINYNSALMSRLSISKDNSKSQVFLKLNSLQTDDTAMYYCASDKYDGGWFAYWGQGTLVTVSA
VL: DIVMTQSQKFMSTSVGDRVSITCKASQNVRTAVAWYQQKPGQSPEALIYLASNRHTGVPDRFTGSGSGTDFSLSISNVQSEDLADYFCLQHLNYPLTFGSGTKLEIK
- Kd [2]: 2 nM

B9: anti-CD3 scFv clone (VH as SEQ ID NO: 149, VL as SEQ ID NO: 150) (scFv)
scFv: EVQLLESGGGLVQPGGSLKLSCAASGFTFNTYAMNWVRQAPGKCLEWVARIRSKYNNYATYYADSVKDRFTISRDDSKNTAYLQMNNLKTEDTAVYYCVRHGNFGNSYVSWFAYWGQGTLVTVSSGGGGSGGGGSGGGGSELVVTQEPSLTVSPGGTVTLTCRSSTGAVTTSNYANWVQQKPGQAPRGLIGGTNKRAPGTPARFSGSLLGGKAALTLSGVQPEDEAEYYCALWYSNLWVFGCGTKLTVL
notes: also called the CD3 scFv
- Kd [9]: 6 nM
